Assay results as given in article PMC6235853.

How the values were obtained:
[1] = target: CusB N-terminal fragment residues 1-61, S(Met) (unlabelled) (Escherichia coli)
[2] = target: CusB N-terminal fragment residues 1-61, S(Met) (unlabelled) (Escherichia coli); experiment: rapid freeze quench X-ray absorption spectroscopy (RFQ-XAS, Se K edge); 23 °C; 1:2 mixture of apo-SeM-CusF with Cu(I)-loaded S(met)-CusB-NT, 50 mM HEPES pH 7.5, 5% ethylene glycol, liquid ethane quench, 15 ms to 30 s; Se-Cu peak height fitted (DYNAFIT) to rapid protein-protein association followed by intra-complex metal transfer; the complex shares one Cu(I) between ligands of both proteins

Chain of CusB N-terminal fragment residues 1-61, S(Met) (unlabelled) (Escherichia coli) (P77239 29-89 limits assumed): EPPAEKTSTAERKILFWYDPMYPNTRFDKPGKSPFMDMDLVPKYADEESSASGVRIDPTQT

| fast phase of the quenching of the CusF W44 344 nm emission, stopped-flow fluorescence, 4 °C, apo-S(met)-CusF mixed with Cu(I)-S(Met)-CusB-NT [1] [s⁻¹] | slow phase of the quenching of the CusF W44 344 nm emission, stopped-flow fluorescence, 4 °C, apo-S(met)-CusF mixed with Cu(I)-S(Met)-CusB-NT [1] [s⁻¹] | kon [2] [M⁻¹ s⁻¹] | Substance |
| --- | --- | --- | --- |
| 165 | 0.012 |  | CusF(6-88) M8I M59I double mutant, S(Met) (unlabelled) (domain or fragment) |
|  |  | 1e+06 | selenomethionine-labelled CusF(6-88) M8I M59I double mutant (domain or fragment) |
